Patent US20260069676A1 (University of California, published 2026)

Target: T1, MHC I (H2Kb) on dendritic cells (;mouse, UniProt P01887 21-119; P01901 22-369)
T1 construct: whole, on cells; also called MHC I molecules of DC2.4 cells
T1 sequence (MHC heavy): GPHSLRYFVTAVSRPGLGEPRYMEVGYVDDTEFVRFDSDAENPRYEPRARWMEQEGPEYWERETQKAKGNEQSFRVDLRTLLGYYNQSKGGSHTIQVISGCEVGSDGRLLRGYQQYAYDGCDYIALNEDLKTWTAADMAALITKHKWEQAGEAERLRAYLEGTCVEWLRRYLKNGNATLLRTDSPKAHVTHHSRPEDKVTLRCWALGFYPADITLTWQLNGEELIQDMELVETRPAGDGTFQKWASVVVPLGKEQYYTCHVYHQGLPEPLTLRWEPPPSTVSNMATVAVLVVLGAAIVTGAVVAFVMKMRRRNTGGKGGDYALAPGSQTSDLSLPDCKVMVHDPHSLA
T1 sequence (b2m): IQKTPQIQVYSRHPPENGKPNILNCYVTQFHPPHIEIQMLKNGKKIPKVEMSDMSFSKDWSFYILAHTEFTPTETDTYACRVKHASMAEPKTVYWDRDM
Test: competition with pre-loaded SIINFEKL on dendritic cells, flow cytometry with SIINFEKL/H2Kb-specific antibody

B1: LTDEMIAQY peptide (MHC I peptide, SARS-CoV-2 spike T cell epitope) (peptide)
peptide: LTDEMIAQY
notes: Synthetic peptide (Anaspec), derived from the SARS-CoV-2 spike protein; also called LTD peptide (MHC I); LTD-MHC I peptide
Q: Does B1 bind?
A: binds
